Measurements published in article PMC5059719, “Tetrameric structure of the restriction DNA glycosylase R.PabI in complex with nonspecific double-stranded DNA” (Scientific Reports, 2016).

Columns and labels:
[1] = molecular target: R.PabI Y68F R70D mutant, residues 8-226 (Pyrococcus abyssi) (UniProt Q9V2B6)
[2] = molecular target: R.PabI Y68F R70D D71R mutant, residues 8-226 (Pyrococcus abyssi) (UniProt Q9V2B6)
[3] = molecular target: the molecule itself; test: cell-based or functional assay
[4] = molecular target: the molecule itself; test: crystal structure; R.PabI R32A E63A dimer co-crystallised with 20 bp blunt-ended nonspecific dsDNA (dsDNA:dimer 1:2) in 10 mM MES pH 6.0, 100 mM NaCl; sitting drop, 20 °C; one dimer in the asymmetric unit, tetramer = two dimers related by the crystallographic two-fold axis, sandwiching the dsDNA

B1: R.PabI Y68F R70D mutant, residues 8-226 (enzyme)
chain: EASVSFENGKIVVRLPITRPTSKIRVKKIENGVGIPVSTRKKSFPSDENLRDYYIEWQISFADDGKYDYELSRMVRLAHEHGILTYNDIYELLKFADDVKSYLEDKGIRRESTNEELYGFNIYEDVYPVAKKELPSGEFIGIVLKHKQRAVGYQSMVYVCIPLTNVEPSLAGRVARRNEVVKYEVPVDLMKELLKAFIIASETHKNDIVKFLRSIIGTS
Work on B1 yielded a DNA glycosylase activity relative to the Y68F control, 24 bp dsDNA substrate [1] of 127%, a DNA glycosylase activity relative to the Y68F control, 500 bp dsDNA substrate [1] of 76% and a DNA glycosylase activity relative to the Y68F control, 3000 bp dsDNA substrate [1] of 19%.

B2: R.PabI Y68F R70D D71R mutant, residues 8-226 (enzyme)
chain: EASVSFENGKIVVRLPITRPTSKIRVKKIENGVGIPVSTRKKSFPSDENLRDYYIEWQISFADRGKYDYELSRMVRLAHEHGILTYNDIYELLKFADDVKSYLEDKGIRRESTNEELYGFNIYEDVYPVAKKELPSGEFIGIVLKHKQRAVGYQSMVYVCIPLTNVEPSLAGRVARRNEVVKYEVPVDLMKELLKAFIIASETHKNDIVKFLRSIIGTS
Binder B2 has a DNA glycosylase activity relative to the Y68F control, 24 bp dsDNA substrate [2] of 105%, a DNA glycosylase activity relative to the Y68F control, 500 bp dsDNA substrate [2] of 71% and a DNA glycosylase activity relative to the Y68F control, 3000 bp dsDNA substrate [2] of 40%.

B3: R.PabI Y68F D71R mutant, residues 8-226 (enzyme, Pyrococcus abyssi, UniProt Q9V2B6 8-226, looked up)
chain: EASVSFENGKIVVRLPITRPTSKIRVKKIENGVGIPVSTRKKSFPSDENLRDYYIEWQISFARRGKYDYELSRMVRLAHEHGILTYNDIYELLKFADDVKSYLEDKGIRRESTNEELYGFNIYEDVYPVAKKELPSGEFIGIVLKHKQRAVGYQSMVYVCIPLTNVEPSLAGRVARRNEVVKYEVPVDLMKELLKAFIIASETHKNDIVKFLRSIIGTS
B3 was tested, and the “DNA glycosylase activity relative to the Y68F control, 24 bp dsDNA substrate” value [3] was 74%, the “DNA glycosylase activity relative to the Y68F control, 500 bp dsDNA substrate” value [3] was 34% and the “DNA glycosylase activity relative to the Y68F control, 3000 bp dsDNA substrate” value [3] was 19%.

B4: R.PabI R32A E63A double mutant, residues 8-226 (enzyme, Pyrococcus abyssi, UniProt Q9V2B6 8-226, looked up)
chain: EASVSFENGKIVVRLPITRPTSKIAVKKIENGVGIPVSTRKKSFPSDENLRDYYIAWQISYARDGKYDYELSRMVRLAHEHGILTYNDIYELLKFADDVKSYLEDKGIRRESTNEELYGFNIYEDVYPVAKKELPSGEFIGIVLKHKQRAVGYQSMVYVCIPLTNVEPSLAGRVARRNEVVKYEVPVDLMKELLKAFIIASETHKNDIVKFLRSIIGTS
notes: R.PabI, type II restriction enzyme (restriction DNA glycosylase) of Pyrococcus abyssi, residues 8-226, with R32A and E63A; Cloned into the NdeI-BamHI site of pET26b; also called protomers A and B; source: E. coli Rosetta(DE3)pLysS, purified (heat treatment, heparin column, MonoS)
In the case of B4, the “stoichiometry N” value [4] is reported as 2.
